Source: patent US20260028403A1 (Zymeworks, published 2026)
Substitutions are numbered along the chain they refer to. Names and notes keep the numbering of the source. Each block holds one binder with its values, some of them ahead of it.

How the values were obtained:
[1] = biological target: T1, CD28 on primary human T cells (human, UniProt P10747 19-220); experiment: cell-based or functional assay
[2] = biological target: T1, CD28 on primary human T cells; experiment: cell-based or functional assay; remark: listed apart in the source
[3] = biological target: T2, Recombinant human/cynomolgus/rhesus macaque CD28 mouse IgG2a Fc fusion protein (Acro Biosystems) (human/cynomolgus/rhesus macaque, UniProt P10747 19-152); experiment: SPR Biacore T200, CD28-mIgG2a Fc on CM5
T2 construct: bought; also called huCD28

[4] = biological target: T1, CD28 on primary human T cells; experiment: cell-based or functional assay; remark: listed apart in the source
[5] = biological target: T1, CD28 on primary human T cells; experiment: cell-based or functional assay; remark: listed apart in the source
[6] = biological target: T1, CD28 on primary human T cells; experiment: cell-based or functional assay; remark: listed apart in the source
Human CLDN18.2 = biological target: T3, Human CLDN18.2 (human); experiment: flow cytometry, SNU 601 cells
T3 construct: on transfected HEK293-6E cells or native on SNU 601 cells

[7] = biological target: T2, Recombinant human/cynomolgus/rhesus …; experiment: SPR, in-format anti-CD28 variants, huCD28
[8] = biological target: T4, Recombinant human CD3 epsilon/delta heterodimer, his tag protein (Acro Biosystems) (human, UniProt P07766 23-126; P04234 22-105); experiment: SPR Biacore T200, CD3 e/d-his on CM5, construct injected, 1:1 model;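 also: measured at 25 °C in HEPES-buffered saline with EDTA and Tween 20 at pH 7.4, values are means of three independent runs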
T4 construct: bought

[9] = biological target: T2, Recombinant human/cynomolgus/rhesus …; experiment: SPR Biacore T200, CD28-mIgG2a Fc on CM5, construct injected, 1:1 model;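 also: fc fusion captured by amine coupling, run at 25 °C in HEPES buffer pH 7.4, association 140-500 s then dissociation 600-1200 s, values averaged over three independent runs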
Experimental: All SPR binding experiments were carried out using a BiacoreT200 instrument at 25° C. with 10 mM HEPES, 150 mM NaCl, 3 mM EDTA, and 0.05% Tween 20 at pH 7.4. Recombinant human/cynomolgus/rhesus macaque CD28 mouse IgG2a Fc fusion protein (Acro Biosystems) was covalently immobilized on CM5 sensor chips by amine coupling. Purified antibody constructs to be tested were injected on the sensor chip at 30 μL/min for 140-500 s following a dissociation for 600-1200 s. Resultant kₒₙ, koff and KD values were determined from fitting the sensorgrams using the 1:1 binding model with reported values as the mean of three independent runs.

[10] = biological target: T5, Recombinant human/Cynomolgus/Rhesus macaque CD28 Protein, His Tag (Acro Biosystems) (human/cynomolgus/rhesus macaque, UniProt P10747 19-152); experiment: SPR, v37634 captured on anti-human IgG Fc on CM5, CD28-his tag flowed
T5 construct: used only for v37634; also called CD28-his tag

IL-2 maximum cytokine, T cells alone [2]: 243 pg/mL
IL-2 maximum cytokine, T cells with SNU 601 cells [2]: 2700 pg/mL
TNFa maximum cytokine, T cells alone [2]: 23 pg/mL
TNFa maximum cytokine, T cells with SNU 601 cells [2]: 518 pg/mL
binding result [3]: no binding
B1: v37690 (trispecific antibody, human IgG1, kappa, L234A L235A)
heavy 1: not shown
heavy 2: QVQLVESGGGLVQPGGSLRLSCSVSGIDLSSNPMIWVRQAPGKGLQYIGIIDTDGSTYYADWAKGRFTISKDSTTVYLQINSPRAEDTAVYYCARRLHGSSNGYYDDLWGQGTLVTVSSGGGGSGGGGSGGGGSGGGGSDGQMTQSPSSVSASVGDRVTITCQASQSIYSYLSWYQQKPGQRPKLLIYKASTLASGVPSRFSGSGSGTDFTLTISSVQPEDFATYYCQQGYTVTNVDKNTFGGGTKVEIKAAEPKSSDKTHTCPPCPAPEAAGGPSVFLFPPKPKDTLMISRTPEVTCVVVSVSHEDPEVKFNWYVDGVEVHNAKTKPREEQYNSTYRVVSVLTVLHQDWLNGKEYKCKVSNKALPAPIEKTISKAKGQPREPQVYVLPPSRDELTKNQVSLLCLVKGFYPSDIAVEWESNGQPENNYLTWPPVLDSDGSFFLYSKLTVDKSRWQQGNVFSCSVMHEALHNHYTQKSLSLSPG
light: DIQMTQSPSSLSASVGDRVTITCRASESVEYYVTSLMQWYQQKPGKAPKLLIYAASNVDSGVPSRFSGSGSGTDFTLTISSLQPEDIATYYCQQSRKVPFTFGGGTKVEIKRTVAAPSVFIFPPSDEQLKSGTASVVCLLNNFYPREAKVQWKVDNALQSGNSQESVTEQDSKDSTYSLSSTLTLSKADYEKHKVYACEVTHQGLSSPVTKSFNRGEC
notes: also called v37638 format, CD28 VH Y1112S
IC50, T cell-dependent cytotoxicity on SNU 601 [1]: 0.00121 nM
Maximum Killing (%), SNU 601 [1]: 92.3%

IFNg mean cytokine, T cells alone, 45 nM construct [4]: 857 pg/mL
IL-2 mean cytokine, T cells alone, 45 nM construct [4]: 2930 pg/mL
IFNg EC50, T cells + SNU 601 [5]: 0.00367 nM
IFNg maximum cytokine, T cells + SNU 601 [5]: 3040 pg/mL
IL-2 EC50, T cells + SNU 601 [5]: 0.00267 nM
IL-2 maximum cytokine, T cells + SNU 601 [5]: 5060 pg/mL
IC50, TDCC on SNU 601-RFP, 1:5 E:T [6]: 0.0023 nM
IC50, TDCC on SNU 601-RFP, 2:1 E:T [6]: 0.000166 nM
Bmax (Human CLDN18.2): 9310 MFI
EC50 (Human CLDN18.2): 24.1 nM
Fold-change from WT [7]: 1 fold
Kd [7]: 42.3 nM
koff [7]: 0.00286 s⁻¹
kon [7]: 70400 M⁻¹ s⁻¹
Kd [8]: 62 nM
koff [8]: 0.0117 s⁻¹
kon [8]: 189000 M⁻¹ s⁻¹
Kd [9]: 20.2 nM
koff [9]: 0.00198 s⁻¹
kon [9]: 98200 M⁻¹ s⁻¹
B2: v37642 (trispecific antibody, human IgG1, kappa, L234A L235A)
heavy 1: not shown
heavy 2: EVQLVESGGGLVQPGGSLRLSCAASGVTFNYYGMSWIRQAPGKGLEWVASITSSGGRIYYPDSVKGRFTISRENTQKTLYLQMNSLRAEDTAVYYCTLDGRDGWVAYWGQGTLVTVSSGGGGSGGGGSGGGGSGGGGSNFMLTQPHSVSESPGKTVTISCKRNTGNIGSNYVNWYQQHEGSSPTTIIYRNDKRPDGVSDRFSGSIDRSSKSASLTISNLKTEDEADYFCQSYSSGFIFGGGTKLTVLAAEPKSSDKTHTCPPCPAPEAAGGPSVFLFPPKPKDTLMISRTPEVTCVVVSVSHEDPEVKFNWYVDGVEVHNAKTKPREEQYNSTYRVVSVLTVLHQDWLNGKEYKCKVSNKALPAPIEKTISKAKGQPREPQVYVLPPSRDELTKNQVSLLCLVKGFYPSDIAVEWESNGQPENNYLTWPPVLDSDGSFFLYSKLTVDKSRWQQGNVFSCSVMHEALHNHYTQKSLSLSPG
light: B1 light
notes: also called Cldn18.2xCD28xCD3 trispecific
Maximum Mean Cytotoxicity (%), 1:5 E:T [6]: 96.9%
Maximum Mean Cytotoxicity (%), 2:1 E:T [6]: 98.7%

Bmax (Human CLDN18.2): 6840 MFI
EC50 (Human CLDN18.2): 27.2 nM
Kd [8]: 77.6 nM
koff [8]: 0.0123 s⁻¹
kon [8]: 163000 M⁻¹ s⁻¹
Kd [10]: 258 nM
koff [10]: 0.00187 s⁻¹
kon [10]: 7230 M⁻¹ s⁻¹
B3: v37634 (trispecific antibody, human IgG1, lambda, L234A L235A)
heavy 1: not shown
heavy 2: B1 heavy 2
light: NFMLTQPHSVSESPGKTVTISCKRNTGNIGSNYVNWYQQHEGSSPTTIIYRNDKRPDGVSDRFSGSIDRSSKSASLTISNLKTEDEADYFCQSYSSGFIFGGGTKLTVLGQPKAAPSVTLFPPSSEELQANKATLVCLISDFYPGAVTVAWKADSSPVKAGVETTTPSKQSNNKYAASSYLSLTPEQWKSHRSYSCQVTHEGSTVEKTVAPTECSGGGGSGDIQMTQSPSSLSASVGDRVTITCRASESVEYYVTSLMQWYQQKPGKAPKLLIYAASNVDSGVPSRFSGSGSGTDFTLTISSLQPEDIATYYCQQSRKVPFTFGGGTKVEIKGGGGSGGGGSGGGGSGGGGSQVQLQESGPGLVKPSETLSLTCAVSGFSLTSYGVHWIRQPPGKGLEWLGVIWPGGGTNFNSALMSRLTISEDTSKNQVSLKLSSVTAADTAVYYCARDRAYGNYLYAMDYWGQGTLVTVSS
notes: CD28 scFv on C-terminus of the CD3 Fab light chain; Het Fc, FcKO; also called CD3xCD28xCldn18.2 trispecific

IFNg mean cytokine, T cells alone, 45 nM construct [4]: 15.4 pg/mL
IL-2 mean cytokine, T cells alone, 45 nM construct [4]: 26.5 pg/mL
IFNg EC50, T cells + SNU 601 [5]: 0.0909 nM
IFNg maximum cytokine, T cells + SNU 601 [5]: 6150 pg/mL
IL-2 EC50, T cells + SNU 601 [5]: 0.0222 nM
IL-2 maximum cytokine, T cells + SNU 601 [5]: 9620 pg/mL
IC50, TDCC on SNU 601-RFP, 1:5 E:T [6]: 0.0127 nM
IC50, TDCC on SNU 601-RFP, 2:1 E:T [6]: 0.000838 nM
Fold-change from WT [7]: 6.1 fold
Kd [7]: 257 nM
koff [7]: 0.0145 s⁻¹
kon [7]: 62900 M⁻¹ s⁻¹
B4: v38991 (trispecific antibody, human IgG1, kappa, L234A L235A)
heavy 1: not shown
heavy 2: B2 heavy 2
light: B1 light
notes: also called v37642 format, CD28 VH N1111aA
Maximum Mean Cytotoxicity (%), 1:5 E:T [6]: 95.6%
Maximum Mean Cytotoxicity (%), 2:1 E:T [6]: 98.2%

IL-2 maximum cytokine, T cells alone [2]: 29.9 pg/mL
IL-2 maximum cytokine, T cells with SNU 601 cells [2]: 226 pg/mL
TNFa maximum cytokine, T cells alone [2]: 12.9 pg/mL
TNFa maximum cytokine, T cells with SNU 601 cells [2]: 166 pg/mL
binding result [3]: no binding
B5: v37694 (trispecific antibody, human IgG1, kappa, L234A L235A)
heavy 1: not shown
heavy 2: B1 heavy 2
light: B1 light with Y31A
notes: also called v37638 format, CD28 VL Y1031A
IC50, T cell-dependent cytotoxicity on SNU 601 [1]: 0.00144 nM
Maximum Killing (%), SNU 601 [1]: 93.1%
